Test results taken from PMC5490839 (Nature immunology, 2016).
Where no end group is shown, it is not given here.

Biological target: T1, Zap70 D461N-tagged (Myc- or hemagglutinin-tagged, kinase-inactive Zap70) (human, UniProt P43403 1-619, D461N)
T1 sequence (looked up): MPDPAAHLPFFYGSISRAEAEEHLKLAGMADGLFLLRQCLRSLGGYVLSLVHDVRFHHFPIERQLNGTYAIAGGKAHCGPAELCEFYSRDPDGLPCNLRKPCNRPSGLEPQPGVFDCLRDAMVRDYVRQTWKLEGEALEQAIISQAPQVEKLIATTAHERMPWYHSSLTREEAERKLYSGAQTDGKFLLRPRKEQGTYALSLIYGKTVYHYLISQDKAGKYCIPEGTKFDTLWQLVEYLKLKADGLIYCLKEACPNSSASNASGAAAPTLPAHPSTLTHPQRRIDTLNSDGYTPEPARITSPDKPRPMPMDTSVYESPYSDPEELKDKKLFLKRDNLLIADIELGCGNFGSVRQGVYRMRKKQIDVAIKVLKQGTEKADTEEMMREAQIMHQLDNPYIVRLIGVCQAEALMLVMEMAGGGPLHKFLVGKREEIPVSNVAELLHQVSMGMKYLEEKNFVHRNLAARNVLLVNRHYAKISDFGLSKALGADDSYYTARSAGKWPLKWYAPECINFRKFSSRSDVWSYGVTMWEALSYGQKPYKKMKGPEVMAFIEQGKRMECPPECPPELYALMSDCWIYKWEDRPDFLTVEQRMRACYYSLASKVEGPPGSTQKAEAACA
Assay: ELISA

GGAGQDGVRQSRASDKQTLLPNDQLYQPLKDREDDQYSHLQGNQLRRN (domain or fragment, also: ITAM phosphorylated by Lck, sites not given here, GST fusion): binds.
